Experimental data from the domain aggregation screens of Martell et al. (2025).

Experiment: soluble fraction after stress (log2 fold change); higher = more stays soluble; pooled small domains, quantitative proteomics
Settings: stress: 75 degC
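Note: 20 min heating vs room temperature control held 20 min.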

Sequence | soluble fraction (log2)
HMQITDSGAIETIIDKIIADNPGQVTQYLSGKDKVFGFFVGQTMKASQGKANPAEVNKILQEKLK | -0.0499
HMFPELEPDEQLIADLLRKTNNLQINIITVRTGLPINRVTALLFQMEMKGVVRPLAGGTYHLLV | -2.14
HMPSPEVELLEDLLSKTDEAEVEAAFHENQALVNDEFKAMLGSLIQELSKTQEADPEIIARIRFIQKLT | -0.128
HMAKRYFVTTGVRVRTKPDTANSEVLTVLDEGSEIDYKGDYNNEWVKINYNGQEAYIAKQYVRSEE | -0.382
HMNALTEAESKLLERMNKAGIHAEITTKKAAGILQRSENGARTVLNSLVKKGYLTVETNKAPYIYHLH | -0.359
HMVVMKGKVKWFNKNKGYGFIITDDNKEYFVHWKSIVTNSPRELKVLEQDELVTFDLMETDKGIQAINII | -2.19
HMIYRTTSVPIDNISTQKFNLQEGWIEMNKNEVEDFIRQKNLELVVTDSNVMLDKFALNGDPNKFKVFKY | 0.0778
HMEISEILNPPLVTAMAERYPEVDVSYYRDKYILYYESREHKITDHRRNFEKWLLVESQKEEN | -0.861
HMNLLGDNIRKLRLEKGLGLNEVARLANITGGYLSSIENNKRTNVGTEILESIAKAIGVSVSDFYL | -0.347
HMASQFSLIVTQADAGMRLDSLLAVSGAYPSRSAAVKQIEAGKVLVNGLARSKRSIVAPGDTIVYEEIP | -0.981
HMNNIGENIKKYRTKQGLSQEDFAKKSGVKYTTLTKIESGVIKKPSVLVMAKIAKALGVNIEELI | -1.64
HMKREETLKALATKNANYVARSGRRYSFEPMNPYERRIIHTAVQEIEGVTSRSIGSGMDRRVLIEPEGGV | -0.322
HMKGSYTVKSGDNLWSIARKFYGGSGSTWTKIYSANKSTIESTARRYGRSSSDNGHWIYPGTVLVIP | -0.924
HMDSMATVPDLVGKTEDEAKALANDAHLGVQMAGEEASDQEKGKISRQETAAGTQVAEYTTVKYWVSTGTQ | 0.763
HMDTIAEFIAELTPLEQKVFHVYYEKGQSLKDTAQQAEITSTSARGALDRIRAKGRHFHLAVILFIG | -0.7
HMASELQQVQALLESQRYNEALILIETTIGKGASESTELLFARADVFASSGRHDEAEQAYREL | -0.145

Sequence | soluble fraction (log2)
HMGLNLIGLKRSGFAPEEVKAMTRAYMYIFKSAEGNFESRLAKAHEKYKDDALIMEMVEFIDDALKG | -1.09
HMGKTEETLQMEKLVEALRRSGRMKYEDAYRIVYAAFPDAKDFEGMLSGAIRAGFIELQMGNDGAFLRAL | -0.859
HMDSEQLSGLVNMGFSVYQAKTALEMFDNDIERAANYL | -0.478
HMLRTEYLTVNYAKASEVAELVTASGFLSSRGSITVDERTNTLLLQDTATNIDEVRFMLEQLD | -0.366
HMEDIAAIAQRIQGLRDIVGISVEEMAKALDISEQEYREYEKGETDFSFSFLYTVANVLGINITDLI | -1.29
HMPLIPIAIELARHALPSLIGAIAGDKSEKVAKEVVDAALKTTGKTTPDEALHALQADPQLAHEYRLSLL | 0.982
HMSYTDIILKMSNVNFLTKVNFTNSEKNKNIKNGNFLIKKGKNRITAAFDYKDNELVISKSNLRNTFL | -1.18
HMPIPIESEISRSPGQSIYAFVQQHYGRSGRSPADMRALVGLILRLNRQIRTPLLIPFGLVVVRPT | 0.335
HMNELPSVIIMKNGRTRPYELQEISKDEEWLNQTIREHGIEPKDIFIAEFWDGRTAFILNDGRIVK | -0.428
HMDGLAEQLFNILREELESGDYKPGQKLMSESALAQKYGVSRLTVRAAIARLSALDYVETRNGEGSFVKKR | -1.78
HMAGPAGASEVANARDGDDETPLHMAARGGYPGIVRMLLAAGAKADAKSAAGLFPWNYAEDGSELHALLPR | 0.139
HMLVSVSNYLGQNVDTVKSDLEALGLVVKLKEQQTDRESENGAVLEQSIEGGSKVSAGTPITLTYGK | 0.945
HMASLSEREHDVAVLILQGKTYAEIGQAIFISPRTVEHHVASIRRRLEAKSRSDLIAKLRLTIGGTED | -2.68
HMDAVLMEYDRLLALELTEDPDVYQDLLDKVREQSLGADGRVTDKYREKFDAVATRFDDYEDNYQW | -0.113
HMTQQNRDELYRRMIDAGWDQLVRNGIRSLRVEQVAAAVGIAKGTFYHFFDSKDDFIYAMLMENRQ | -3.41
